From patent publication US20110086795A1

Biological target: Myc-tagged Slo1QEERL
Test: cell-based or functional assay

- reduction in mean surface expression of Slo1 (cell-surface biotinylation, densitometry): 50%
Substance: HA-tagged Slo1VEDEC
